Results from the supplement of paper PMC10567573.

B1: C20orf112 (parent)
chain: YANGGLNYSYRGYGALSSNLQPPA

Variants of: B1
Assay: protein stability index of a GFP-peptide fusion (GPS, HEK-293T) (PSI 1-6); higher = more stable
Details: c terminus: a fixed tail appended
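Also: lentivirally expressed fusions sorted by FACS into six bins by GFP to DsRed ratio, PSI derived from sequencing read proportions per bin multiplied by bin number.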

Protein stability index of substitutions, site by site:
G14: C 3.39 | Q 1.76 | I 3.6 | P 2.54 | N 2.87 | K 2.21 | M 2.18 | H 2.07 | T 2.8 | S 2.32 | L 3.28 | E 2.45 | W 3.05 | A 1.76 | D 1.54 | R 2.7 | V 2.4 | F 2.52 | Y 2.91
R11: D 1.82 | C 3.49 | K 2.09 | M 2.48 | L 2.31 | T 1.53 | F 2.31 | N 2.27 | W 2.44 | V 2.09 | Y 2.21 | E 1.94 | Q 2.32 | S 2.19 | A 1.72 | H 1.69 | P 2.06 | G 2.24 | I 1.98
Y8: C 2.22 | A 1.76 | D 1.95 | S 1.89 | K 1.83 | V 2.19 | F 1.73 | T 1.84 | E 2.13 | I 2.15 | M 1.95 | G 2.19 | P 1.37 | R 2.04 | Q 1.64 | L 1.94 | H 1.85 | W 2.23 | N 2.22
A2: D 2.81 | F 2.07 | L 1.93 | Y 2.63 | H 1.62 | M 1.68 | Q 1.4 | C 1.87 | N 2.3 | G 1.95 | R 2.22 | E 2.63 | S 1.54 | T 1.99 | K 2.19 | V 2.49 | I 2.1 | W 2.22
A15: N 2.4 | S 2.22 | E 2.37 | I 2.42 | P 2.52 | Q 1.77 | F 2.68 | Y 2.97 | V 1.85 | T 2.75 | W 1.88 | D 2.07 | G 1.87 | L 2.6 | K 2.24 | M 1.49 | R 2.8 | C 2.32 | H 2.62
G5: C 2.2 | A 1.99 | N 1.72 | H 2.08 | L 1.9 | T 1.91 | F 1.98 | I 2.21 | D 2.08 | K 1.82 | Y 1.86 | W 2.37 | P 2.02 | Q 1.93 | R 1.98 | E 2.4 | S 1.65 | M 2.49 | V 2.03
G12: V 3.16 | R 1.08 | S 1.91 | D 1.42 | L 2.31 | W 2.08 | C 2.85 | A 2.46 | M 2.48 | Y 3 | E 1.63 | N 1.93 | T 2.23 | K 1.97 | P 1.91 | H 2.55 | I 2.72 | F 1.67 | Q 1.86
N3: L 2.25 | M 1.5 | C 1.69 | V 2.08 | A 1.64 | R 2.25 | T 1.65 | Q 1.65 | H 1.55 | Y 1.8 | W 1.82 | P 2.35 | D 2.56 | G 1.98 | E 1.6 | K 1.7 | I 2.11 | S 1.99 | F 2.04
Y1: V 2.2 | E 3.15 | P 2.43 | Q 3.32 | G 3.16 | M 2.87 | I 2.45 | W 1.85 | A 3.08 | D 2.9 | S 3.12 | L 2.67 | H 2.64 | F 1.86 | N 3.08 | C 1.96 | T 2.83 | K 2.96 | R 2.97
L6: W 2.27 | H 1.97 | A 2.03 | M 2.3 | C 2.24 | R 2.1 | I 2.33 | S 1.65 | N 1.47 | D 1.9 | P 2.5 | Y 2.47 | K 1.57 | V 1.85 | T 1.96 | F 2.08 | E 1.97 | Q 1.55 | G 1.73
Y10: C 2.23 | H 2.15 | S 2.48 | G 1.5 | M 2.97 | I 1.99 | P 1.92 | F 1.5 | D 1.54 | N 1.89 | W 2.66 | A 1.9 | T 2.25 | Q 1.77 | K 1.73 | R 2.01 | L 2.3 | E 1.32 | V 1.89
Y13: G 1.77 | F 2.5 | V 1.73 | S 1.96 | H 2.01 | A 1.93 | R 1.42 | I 2.29 | W 2.96 | K 2.12 | E 1.33 | L 2.87 | P 2.04 | C 2.63 | M 2.56 | Q 2.13 | N 1.84 | D 1.82 | T 1.66
L16: Q 2.02 | W 2.68 | P 2.57 | R 2.3 | N 2.61 | V 2.21 | C 1.64 | I 2.43 | M 1.75 | S 2.03 | K 1.87 | T 1.76 | F 1.67 | H 2.48 | A 2.11 | G 2.61 | D 1.68 | Y 2.05 | E 2.54
G4: F 1.42 | M 1.48 | D 2.05 | H 1.6 | T 1.98 | R 1.38 | P 2.18 | Y 2.38 | S 1.66 | K 2.4 | Q 2.06 | N 2.02 | W 1.99 | A 2.81 | I 1.93 | C 1.91 | E 2.01 | V 2.32 | L 2.01
N7: Q 2.08 | V 1.15 | T 1.2 | E 2.52 | K 1.81 | S 2.38 | H 3.47 | M 2.76 | I 2.27 | G 3.08 | A 2.81 | W 2.86 | P 2.47 | R 1.52 | Y 2.53 | L 3.75 | F 3.66 | D 1.36 | C 2.1
S9: W 2.46 | A 2.35 | F 2.99 | R 1.67 | P 1.7 | M 2.77 | K 1.57 | G 1.88 | C 1.7 | Y 1.59 | E 1.43 | I 2.58 | T 1.82 | Q 1.46 | D 1.97 | H 1.82 | N 1.89 | V 2.6
S18: L 1.85 | D 1.42 | C 2.17 | N 1.57 | P 2.2 | K 1.61 | I 1.78 | G 1.58 | E 1.56 | M 2.06 | A 2.15 | F 1.72 | H 1.8
S17: T 2.15 | I 3.55 | W 1.85 | P 1.9 | C 2.2 | F 2.49 | A 1.58 | G 3.12 | V 2.33 | L 1.39 | D 1.87 | K 1.94 | Q 1.55 | E 2.23 | N 1.88 | H 1.9 | M 2.17 | Y 2.53 | R 2.56
